Patent US20260117204A1, “STABILIZER FOR URATE OXIDASE AND PEGYLATED CONJUGATE THEREOF, AND PHARMACEUTICAL USE OF STABILIZER” (Hangzhou Grand Biologic Pharmaceutical Inc., priority 2023, published 2026)

Tests used:
[1] = Stability effect of xanthine on urate oxidase from Micrococcus at 2° C. to 8° C.: SEC; assay type: physicochemical; details: for High molecular weight % / Low molecular weight % / Main peak area / Main peak ratio % / Total peak area: SEC
Description: SEC, 7.8×300 mm chromatographic column or equivalent column was selected. 0.05 mol/L Na2HPO4—NaH2PO4, 0.3 mol/L NaCl, pH 7.0 was used as the mobile phase. The flow rate of HPLC was set to be 0.5 ml/min, and the detection wavelength to 280 nm. Isocratic elution was performed for 35 min, and the injection volume was 10 μl. From the SEC results of the stability test at 2° C. to 8° C. in Table 3, it can be seen that the total peak area of the group with small molecules added on day 15 is larger and the main peak ratio thereof is higher.

[2] = Effect of xanthine on the activity of PEGylated urate oxidase (UV 293 nm); assay type: biochemical; details: xanthine 0.075 to 1.2 μg/ml
Description: The method used for determining the activity of urate oxidase and PEGylated urate oxidase was as follows. […] Therefore, the UV spectrophotometer detection wavelength was 293 nm. The buffer solution was used as a blank control, and the absorption zero point was calibrated. In the quartz cuvette, 2.95 ml of substrate reaction solution was added followed by 50 μl of the test solution, mixed immediately, and the light absorption value at 293 nm was measured. According to C=A/εL (A being the absorbance value of a specific concentration of uric acid at 293 nm, εbeing the molar extinction coefficient of uric acid, L being the light path of the cuvette, and C being the molar concentration of uric acid), the degradation concentration of uric acid and then the enzyme activity were calculated. Definition of the activity of urate oxidase and PEGylated urate oxidase: at the optimal reaction temperature of 37° C. and the optimal reaction pH of 9.5, the amount of enzyme required to convert […] uric acid into allantoin per minute being defined as one activity unit (U). […] The PEGylated urate oxidase solution was mixed with different amounts of xanthine at a molar ratio of 0.05 mg/ml PEGylated urate oxidase to xanthine of 1:0, 1:3, 1:11, and 1:44, and then the activity of urate oxidase and polyethylene glycol-modified urate oxidase was determined according to the above-mentioned detection method.

[3] = Excerpt: As the amount of xanthine added increases, the pH of the solution needs to be further increased to dissolve xanthine. However, high pH conditions will cause protein denaturation. […] The stability change trend of PEGylated urate oxidase tetramer was detected by the detection method of high and low molecular proteins of PEGylated urate oxidase.
The situation where the molar ratio of xanthine to PEGylated urate oxidase was higher than 26:1 was studied.

[4] = Stability of S1 and S2 urate oxidase with/without xanthine at 37° C.: SEC detection of high and low molecular proteins; assay type: physicochemical; details: for High molecular weight % / Low molecular weight % / Main peak %: storage 37° C. ± 2° C.
Description: SEC, 7.8×300 mm chromatographic column or equivalent column was selected. 0.05 mol/L Na2HPO4—NaH2PO4, 0.3 mol/L NaCl, pH 7.0 was used as the mobile phase. The flow rate of HPLC was set to be 0.5 ml/min, and the detection wavelength to 280 nm. Isocratic elution was performed for 35 min, and the injection volume was 10 μl.
(§1) In this example of the present disclosure, xanthine was added to the S1 and S2 samples at a molar ratio of 26 times (xanthine:urate oxidase). The samples were packaged and placed at 37° C. for stability evaluation at days 0, 1.5, 6, and 16. The evaluation indicators include the content of high and low molecular proteins and enzyme specific activity.

[5] = Stability of S1 and S2 urate oxidase with/without xanthine at 37° C.: enzyme specific activity (uric acid absorbance at 293 nm); assay type: biochemical; details: storage 37° C. ± 2° C.
Description: (§2) The method used for determining the activity of urate oxidase and PEGylated urate oxidase was as follows. […] Therefore, the UV spectrophotometer detection wavelength was 293 nm. The buffer solution was used as a blank control, and the absorption zero point was calibrated. In the quartz cuvette, 2.95 ml of substrate reaction solution was added followed by 50 μl of the test solution, mixed immediately, and the light absorption value at 293 nm was measured. According to C=A/εL (A being the absorbance value of a specific concentration of uric acid at 293 nm, εbeing the molar extinction coefficient of uric acid, L being the light path of the cuvette, and C being the molar concentration of uric acid), the degradation concentration of uric acid and then the enzyme activity were calculated.
(§3) Definition of the activity of urate oxidase and PEGylated urate oxidase: at the optimal reaction temperature of 37° C. and the optimal reaction pH of 9.5, the amount of enzyme required to convert […] uric acid into allantoin per minute being defined as one activity unit (U).
as §1

[6] = Stability effect of xanthine on urate oxidase from Micrococcus at 2° C. to 8° C.: enzyme activity; assay type: biochemical; details: storage 2° C. to 8° C., 15 d
Description: as §2, §3

[7] = immediate detection after process preparation

O=c1[nH]c(=O)c2[nH]cnc2[nH]1 [xanthine]
effect of xanthine on the stability of the enzyme derived from Micrococcus ([1]; 26 times xanthine, 2° C. to 8° C., day 15, text): improve the stability of the enzyme derived from Micrococcus to a certain extent
effect of the addition of xanthine on the activity of PEGylated urate oxidase [2]: no effect
solubility of xanthine [3]: good solubility
effect of xanthine on the product stability of commercially available products and PHC ([4]; 26 times molar ratio, 37° C.): significantly improve the product stability

B1: S2: Homemade recombinant pig-baboon chimeric urate oxidase (SEQ ID NO: 1), not PEG modified (protein)
chain: TYKKNDEVEFVRTGYGKDMIKVLHIQRDGKYHSIKEVATTVQLTLSSKKDYLHGDNSDVIPTDTIKNTVNVLAKFKGIKSIETFAVTICEHFLSSFKHVIRAQVYVEEVPWKRFEKNGVKHVHAFIYTPTGTHFCEVEQIRNGPPVIHSGIKDLKVLKTTQSGFEGFIKDQFTTLPEVKDRCFATQVYCKWRYHQGRDVDFEATWDTVRSIVLQKFAGPYDKGEYSPSVQKTLYDIQVLTLGQVPEIEDMEISLPNIHYLNIDMSKMGLINKEEVLLPLDNPYGKITGTVKRKLSSRL
Enzyme specific activity U/mg ([5]; 0 d): 11.3 U/mg
Enzyme specific activity U/mg ([5]; 1.5 d): 5.2 U/mg
Enzyme specific activity U/mg ([5]; 6 d): 3.2 U/mg
Enzyme specific activity U/mg ([5]; 16 d): 1.2 U/mg
High molecular weight % ([4]; 0 d): 0.7%
Low molecular weight % ([4]; 0 d): 0.3%
Main peak % ([4]; 0 d): 99%
High molecular weight % ([4]; 1.5 d): 54.5%
Low molecular weight % ([4]; 1.5 d): 0.2%
Main peak % ([4]; 1.5 d): 45.3%
High molecular weight % ([4]; 6 d): 75.1%
Low molecular weight % ([4]; 6 d): 0.5%
Main peak % ([4]; 6 d): 24.4%
High molecular weight % ([4]; 16 d): 85.1%
Low molecular weight % ([4]; 16 d): 5%
Main peak % ([4]; 16 d): 9.9%

B2: urate oxidase from Micrococcus: Homemade recombinant urate oxidase from wild-type Micrococcus (SEQ ID NO: 9), not PEG modified (protein)
chain: MTNIILGKNQYGKAEVRLVKVTRNTCRHEIQDLNVTSQLRGDFEAAHTAGDNAHVVATDTQKNTVYAFARDGFATTEEFLLRLGKHFTEGFDWVTGGRWAAQQFFWDRINDHDHAFSRNKSEVRTAVLEISGSEQAIVAGIEGLTVLKSTGSEFHGFPRDKYTTLPETEDRILATDVSARWRYNTVEVDFDAVYADVRGLLLKAFAETHSLALQQTMYEMGRAVIETHPEIDEIKMSLPNKHHFLVDLSPFGQDNPNEVFYAADRPYGLIEATIQREGCRADHPIWSN
High molecular weight % [1, 7]: 40.01%
Low molecular weight % [1, 7]: 2.34%
Main peak area [1, 7]: 3,986
Main peak ratio % [1, 7]: 57.65%
Total peak area [1, 7]: 6914.90
High molecular weight % ([1]; storage 2° C. to 8° C., 15 d): 74.58%
Low molecular weight % ([1]; storage 2° C. to 8° C., 15 d): 9.11%
Main peak area ([1]; storage 2° C. to 8° C., 15 d): 814
Main peak ratio % ([1]; storage 2° C. to 8° C., 15 d): 16.31%
Total peak area ([1]; storage 2° C. to 8° C., 15 d): 4993.05
Enzyme activity U/mg [6]: 3.58 U/mg

B3: S1: Commercially available unmodified urate oxidase from Aspergillus flavus (SEQ ID NO: 8) (protein)
chain: SAVKAARYGKDNVRVYKVHKDEKTGVQTVYEMTVCVLLEGEIETSYTKADNSVIVATDSIKNTIYITAKQNPVTPPELFGSILGTHFIEKYNHIHAAHVNIVCHRWTRMDIDGKPHPHSFIRDSEEKRNVQVDVVEGKGIDIKSSLSGLTVLKSTNSQFWGFLRDEYTTLKETWDRILSTDVDATWQWKNFSGLQEVRSHVPKFDATWATAREVTLKTFAEDNSASVQATMYKMAEQILARQQLIETVEYSLPNKHYFEIDLSWHKGLQNTGKNAEVFAPQSDPNGLIKCTVGRSSLKSKL
Enzyme specific activity U/mg ([5]; 0 d): 15.3 U/mg
Enzyme specific activity U/mg ([5]; 1.5 d): 12.6 U/mg
Enzyme specific activity U/mg ([5]; 6 d): 8.5 U/mg
Enzyme specific activity U/mg ([5]; 16 d): 3 U/mg
High molecular weight % ([4]; 0 d): 0.3%
Low molecular weight % ([4]; 0 d): 1%
Main peak % ([4]; 0 d): 98.8%
High molecular weight % ([4]; 1.5 d): 0.2%
Low molecular weight % ([4]; 1.5 d): 5.6%
Main peak % ([4]; 1.5 d): 94.2%
High molecular weight % ([4]; 6 d): 7.3%
Low molecular weight % ([4]; 6 d): 17.7%
Main peak % ([4]; 6 d): 75%
High molecular weight % ([4]; 16 d): 17.2%
Low molecular weight % ([4]; 16 d): 51.7%
Main peak % ([4]; 16 d): 31%
